# In paper PMC2583105 (The EMBO Journal, 2008):
# Residues, ends and D or L forms follow the SMILES beside them.
# How the values were obtained:
# [1] = biological target: LatB-bound G-actin (rabbit skeletal muscle actin) (Oryctolagus cuniculus, UniProt P68135); experiment: Fluorescence anisotropy assay of RPEL^MAL:G-actin interaction; format: binding; conditions: ratio of Kd values from fluorescence anisotropy
# [2] = biological target: FITC-conjugated 'RPEL2-like' RPEL3^MAL peptide, G171/P172 replaced by E and R (mouse); experiment: fluorescence polarisation
# [3] = biological target: FITC-conjugated RPEL1^MAL peptide, E86A (mouse); experiment: fluorescence polarisation
# [4] = biological target: FITC-conjugated RPEL1^MAL peptide, MAL(67–98), wild type (mouse); experiment: fluorescence polarisation
# [5] = biological target: FITC-conjugated RPEL1^MAL peptide, R81 and R82 both to alanine (mouse); experiment: fluorescence polarisation
# [6] = biological target: FITC-conjugated RPEL1^MAL peptide, R81A (mouse); experiment: fluorescence polarisation
# [7] = biological target: FITC-conjugated RPEL1^MAL peptide, alanine at R82 (the position of the conserved RPEL proline) (mouse); experiment: fluorescence polarisation
# [8] = biological target: FITC-conjugated RPEL1^MAL peptide, α2^AAA mutant (mouse); experiment: fluorescence polarisation
# [9] = biological target: FITC-conjugated RPEL2^MAL peptide, E130A (mouse); experiment: fluorescence polarisation
# [10] = biological target: FITC-conjugated RPEL2^MAL peptide, MAL(111–142), wild type (mouse); experiment: fluorescence polarisation
# [11] = biological target: FITC-conjugated RPEL2^MAL peptide, P126 replaced with arginine (mouse); experiment: fluorescence polarisation
# [12] = biological target: FITC-conjugated RPEL2^MAL peptide, P126A (mouse); experiment: fluorescence polarisation
# [13] = biological target: FITC-conjugated RPEL3^MAL peptide, MAL(155–186), wild type (mouse); experiment: fluorescence polarisation
Fold reduction of actin-binding affinity relative to the wild-type peptide [1],Kd [2],Kd [3],Kd [4],Kd [5],Kd [6],Kd [7],Kd [8],Kd [9],Kd [10],Kd [11],Kd [12],Kd [13],Molecule
3.5 fold,,,,,,,,,,,,,CC[C@H](C)[C@H](NC(=O)CNC(=O)[C@H](CCC(N)=O)NC(=O)[C@H](CO)NC(=O)[C@@H](NC(=O)[C@H](CC(C)C)NC(=O)[C@H](CCC(=O)O)NC(=O)[C@H](CCC(=O)O)NC(=O)[C@H](CCCNC(=N)N)NC(=O)[C@@H](NC(=O)[C@H](C)NC(=O)[C@H](CCCNC(=N)N)NC(=O)[C@H](CCC(N)=O)NC(=O)[C@H](CCC(N)=O)NC(=O)[C@H](CC(C)C)NC(=O)[C@H](CCCCN)NC(=O)[C@H](CC(C)C)NC(=O)[C@H](CCC(N)=O)NC(=O)[C@H](CC(C)C)NC(=O)[C@@H](NC(=O)[C@H](CC(N)=O)NC(=O)[C@H](CCCCN)NC(=O)[C@H](CCCNC(=N)N)NC(=O)[C@H](CCC(=O)O)NC(=O)[C@H](CO)NC(=O)[C@H](CC(C)C)NC(=S)Nc1ccc2c(c1)C(=O)OC21c2ccc(O)cc2Oc2cc(O)ccc21)C(C)C)[C@@H](C)O)C(C)C)C(=O)N[C@@H](CCSC)C(=O)N1CCC[C@H]1C(=O)N1CCC[C@H]1C(=O)N[C@@H](CC(C)C)C(=O)N[C@@H](CCCCN)C(=O)N[C@@H](CO)C(=O)O [RPEL1 R82A] (HELM PEPTIDE1{[O=C1OC2(c3ccc(O)cc3Oc3cc(O)ccc32)c2ccc(NC(=S)[*:2])cc21].L.S.E.R.K.N.V.L.Q.L.K.L.Q.Q.R.A.T.R.E.E.L.V.S.Q.G.I.M.P.P.L.K.S}$$$$V2.0; C-terminus assumed)
16 fold,,,,,,,,,,,,,CC[C@H](C)[C@H](NC(=O)[C@H](CCCCN)NC(=O)[C@H](CCCNC(=N)N)NC(=O)[C@H](CCCCN)NC(=O)[C@H](CC(C)C)NC(=O)[C@H](Cc1ccc(O)cc1)NC(=O)[C@H](CC(=O)O)NC(=O)[C@H](CCC(=O)O)NC(=O)[C@@H](NC(=O)[C@H](CCCNC(=N)N)NC(=O)[C@H](C)NC(=O)[C@H](CCCNC(=N)N)NC(=S)Nc1ccc2c(c1)C(=O)OC21c2ccc(O)cc2Oc2cc(O)ccc21)[C@@H](C)O)C(=O)N[C@@H](CCCNC(=N)N)C(=O)N[C@@H](CO)C(=O)N[C@@H](CCCNC(=N)N)C(=O)N[C@@H](C)C(=O)N[C@@H](CCC(=O)O)C(=O)N[C@@H](CCCNC(=N)N)C(=O)N[C@@H](C)C(=O)N[C@@H](CCC(=O)O)C(=O)N[C@@H](CC(C)C)C(=O)N[C@H](C(=O)N[C@@H](CCCNC(=N)N)C(=O)N[C@@H](CCSC)C(=O)N[C@@H](Cc1c[nH]cn1)C(=O)N[C@H](C(=O)N[C@@H](CC(C)C)C(=O)N[C@@H](CCC(=O)O)C(=O)N[C@@H](CCC(=O)O)C(=O)N[C@H](C(=O)N[C@@H](CO)C(=O)N[C@@H](C)C(=O)O)[C@@H](C)O)[C@@H](C)CC)C(C)C [RPEL2 P126A] (HELM PEPTIDE1{[O=C1OC2(c3ccc(O)cc3Oc3cc(O)ccc32)c2ccc(NC(=S)[*:2])cc21].R.A.R.T.E.D.Y.L.K.R.K.I.R.S.R.A.E.R.A.E.L.V.R.M.H.I.L.E.E.T.S.A}$$$$V2.0; C-terminus assumed)
,4.8 µM,2.7 µM,1 µM,44.5 µM,17.7 µM,3.7 µM,24 µM,1.9 µM,1.9 µM,19.5 µM,30.8 µM,28.9 µM,rabbit skeletal muscle G-actin bound to latrunculin B (LatB) and ATP (from UniProt P68135 1-377) (natural protein)
